B1: SEQ ID NO. 1060/1061: glycosyltransferase (DNA/protein SEQ ID NO) producing mogroside I from mogrol (protein, listed as Barbarea vulgaris)
chain: MASESCHHSHCPLHFVLFPFMAQGHMIPMVDIARLLALRGATITIVTTPHNATRFNNLLSRAIESDLSINIVHVNFPYQEAGLSEGQENVDLLESMGLMVPFLKAVNMLEEPVMKLMEEMKPRPSCLISDFCLHYTSKITKKFNIPKIVFHGMGCFCLLCMHVLRRNIEILKNLKSDKEYFLVPSFPDIVEFTKPQVPVETNASGDWKEFLEAMVEAEDTSYGVIVNTFQELEPAYVKDYKEARAGKVWSIGPVSLCNKIEADKAERGNKAAIDQEECLKWLDSKEEGSVLYVCLGSICNLPLAQLKELGIGLEESQRPFIWVIRGWEKYNELSEWMLESGFEERVKDRGLLIKGWSPQMLVLSHPSVGGFLTHCGWNSTLEGITSGVPLLTWPLFADQFCNEKLVVQVLKVGVRAGVEDPMSWGEEEKVGVLLDKEGVKKAVEELMGESDDAKERRKRVKELGELAHKAVEEGGSSHSNITLFLQDISQYKSVGTF
B2: SEQ ID NO. 1068/1069: glycosyltransferase (DNA/protein SEQ ID NO) producing mogroside I from mogrol (protein, listed as Barbarea vulgaris)
chain: MVSEITHKSYPLHFVLFPFMAQGHMIPMVDIARLLAQRGVKITIVTTPHNAARFKNVLSRAIESGLPISIVQVKLPSQEAGLPEGNETLDSLVSMELMIHFLKAVNMLEEPVQKLFEEMSPQPSCIISDFCLPYTSKIAKKFNIPKILFHGMCCFCLLCMHILRKNREIVENLKSDKEHFVVPYFPDRVEFTRPQVPVATYVPGDWHEITEDMVEADKTSYGVIVNTYQELEPAYANDYKEARSGKAWTIGPVSLCNKVGADKAERGNKADIDQDECLKWLNSKEEGSVLYVCLGSICNLPLSQLKELGLGLEESQRPFIWVIRGWEKNKELHEWFSESGFEERIKDRGLLIKGWAPQMLILSHHSVGGFLTHCGWNSTLEGLTAGLPLLTWPLFADQFCNEKLAVQVLKAGVSAGVDQPMKWGEEEKIGVLVDKEGVKKAVEELMGESDDAKEIRRRAKELGELAHKAVEEGGSSHSNITSLLEDIMQLAQSNN
B3: SEQ ID NO. 1066/1067: glycosyltransferase (DNA/protein SEQ ID NO) producing mogroside I from mogrol (protein, listed as Barbarea vulgaris)
chain: MASITNHKSDPLHFVLFPFMAQGHMIPMVDIARLLAQRGLTITIVTTPHNASRFKNVLNRAIESGLPINILHVKLPYQEVGLPEGLENIDCFDSMEHMIPFFKGVNMVEESVQKLFEEMSPRPSCIISDFCLPYTSKVAKKFNIPKILFHGMCCLCLLCMHVLRKNPKILENLKSDKEHFVVPYFPDKIELTRPQVPMDTYVPGELKEFMEDLVEADKTSYGVIVNTFQELEPAYVKDYKETRSGKAWSVGPVALCNKARIDKAERGNKSDIDQDECLKWLDSKEERSVLYVCLGSICNLPLAQLKELGLGLEESTRPFIWVIRGWDKNKQLVEWFSESGFEERIKDRGLLIKGWSPQMLILSHQSVGGFLTHCGWNSTLEGITAGLPLLTWPLFADQFCNEKLVVQVLNSGVRAGVEQPMKWGEEEKIGVLVDKEGVKKAVEELMGESDEANERRRRAKELGELAHKAVEEGGSSHSNITFLLQDIMQLAQPITEPSFLVQSWHYKKALLINLLQRTGHYQSK
B4: SEQ ID NO. 1070/1071: glycosyltransferase (DNA/protein SEQ ID NO) producing mogroside I from mogrol (protein, listed as Barbarea vulgaris)
chain: MVSEITHKSYPLHFVLFPFMAQGHMIPMVDIARLLAQRGVKITIVTTPHNAARFENVLNRAIESGLPISIVQVKLPSQEAGLPEGNETFDSLVSMELLVPFFKSVNMLEEPVQKLFEEMSPQPSCIISDFCLPYTSKIAKKFNIPKILFHGMCCFCLLCMHVLRKNHEIVENLKSDKEHFVVPYFPDRVEFTRPQVPVATYVPGDWHEITGDMVEADKTSYGVIVNTCQELEPAYANDYKEARSGKAWTIGPVSLCNKVGADKAERGNKADIDQDECLKWLNSKEEGSVLYVCLGSICNLPLSQLKELGLGLEESQRPFIWVIRGWEKNKELLEWFSESGFEERIKDRGLLIKGWAPQMLILSHHSVGGFLTHCGWNSTLEGLTAGLPLLTWPLFADQFCNEKLAVQVLKAGVSAGVDQPMKWGEEEKIGVLVDKEGVKKAVEELMGESDDAKEIRRRAKELGELAHKAVEEGGSSHSNITSLLEDIMQLAQSNN
B5: SEQ ID NO. 1058/1059: glycosyltransferase (DNA/protein SEQ ID NO) producing mogroside I from mogrol (protein, listed as Barbarea vulgaris)
chain: MASETTHQFHSPLHFVLFPFMAQGHMIPMVDIARILAQRGVTITIVTTPHNAARFKNVLSRAIQSGLPINLVQAKFPSQESGSLEGHENLDLLDSLGASLTFFKATNMFEKPVEKLLKEIQPRPSCIIGDMCLPYTNRIAKNLGIPKIIFHGMCCFNLLCMHIMRQNYEFLETIDSEKEYFPIPNFPERAEFTKSQLPMITYAGEFKEFLDEVTEGDNTSYGVIVNTFEELEPAYVRDYKKVKAGKVWSIGPVSLCNKVGEDKAERGNKAAIDQDECIKWLDSKEEGSVLYVCLGSICNLPLSQLKELGLGLEESQRPFIWVIRGWEKYNELAEWISESGFKERIKERGLLIRGWSPQMLILSHPAVGGFLTHCGWNSTLEGITSGVPLLTWPLFGDQFCNEKLVVQVLKVGVRSGVEESMKWGQEENIGVLVDKEGVKKAVEEVMGESDDAKERRRRVKELGQLAHKAVEEGGSSHSNITSLLQDIRQLQSKK
B6: SEQ ID NO. 1050/1051: glycosyltransferase (DNA/protein SEQ ID NO) producing mogroside I from mogrol (protein, listed as Bacillus licheniformis)
chain: MRHKHIAIFNIPAHGHINPTLALTASLVKRGYRVTYPVTDEFVKAVEETGAEPLNYRSTLNIDPQQIRELMKNKKDMSQAPLMFIKEMEEVLPQLEALYENDKPDLILFDFMAMAGKLLAEKFGIEAVRLCSTYAQNEHFTFRSISEEFKIELTPEQEDALKNSNLPSFNFEDMFEPAKLNIVFMPRAFQPYGETFDERFSFVGPSLAKRKFQEKETPIISDSGRPVMLISLGTAFNAWPEFYHMCIEAFRDTKWQVIMAVGTTIDPESFDDIPENFSIHQRVPQLEILKKAELFITHGGMNSTMEGLNAGVPLVAVPQMPEQEITARRVEELGLGKHLQPEDTTAASLREAVSQTDGDPHVLKRIQDMQKHIKQAGGAEKAADEIEAFLAPAGVK
B7: SEQ ID NO. 1064/1065: glycosyltransferase (DNA/protein SEQ ID NO) producing mogroside I from mogrol (protein, listed as Barbarea vulgaris)
chain: MASAKLHQFHPSLHFVLFPFMAQGHMIPMIDIARLLAQRGVTITIVTTLHNSARFRNVLSRAIESGLPINLVHVKFPYQEAGLPEGQENIDSLDSKELTVPFFKAVNMLEEPVMKLMEEMKPRPSCLISDLCLPYTSKIAKKFNIPKIVFHGMGCFCLLCMHVLRRNLEILQNLKSDKEYFWIPNFPDRVEFTKPQVPVRINASGDWKVFLDEMVKAEETSYGVIVNTFQELEPAYVKDFQEARAGKVWSIGPVSLCNKIEADKAERGNKAAIDQDECLKWLDSKEGGSVLYVCLGSICNLPLVQLIELGLGLEESQRPFIWVIRGWEKYNELSEWISESGFEERVKDRGLLIRGWAPQVLILSHPSVGGFLTHCGWNSTLEGITSGVPLLTLPLFGDQFCNQKLIVQVLKVGVSAGVEEVMGWGEEEKIGVLVDKERVKKTVEEVMGESDDAKERRRRVKELGKLAHKAVEEGGSSHSNITLFLQDMCQLQSVGIY
B8: SEQ ID NO. 1062/1063: glycosyltransferase (DNA/protein SEQ ID NO) producing mogroside I from mogrol (protein, listed as Barbarea vulgaris)
chain: MASITNHKSDPLHFVLFPFMAQGHMIPMVDIARLLAQRGLTITIVTTPHNASRFKNVLNRAIESGLPINILHVKLPYQEVGLPEGLENIDCFDSMEHMIPFFKGVNMVEESVQKLFEEMSPRPSCIISDFCLPYTSKVAKKFNIPKILFHGMCCLCLLCMHVLRKNPKILENLKSDKEHFVVPYFPDKIELTRPQVPMDTYVPGELKEFMEDLVEADKTSYGVIVNTFQELEPAYVKDYKETRSGKAWSVGPVALCNKARIDKAERGNKSDIDQDECLKWLDSKEERSVLYVCLGSICNLPLAQLKELGLGLEESTRPFIWVIRGWDKNKQLVEWFSESGFEERIKDRGLLIKGWSPQMLILSHQSVGGFLTHCGWNSTLEGITAGLPLLTWPLFADQFCNEKLVVQVLNSGVRAGVEQPMKWGEEEKIGVLVDKEGVKKAVEELMGESDEANERRRRAKELGELAHKAVEEGGSSHSNITFLLQDIMQLAQSNN

test system: mogrol; assay: Mogroside IA and/or IE production from mogrol by glycosyltransferases expressed in S. cerevisiae, LCMS; format: cell-based; settings: 10 μM mogrol, 2-4 days at 30° C.; identified by LCMS
Description: DNA was obtained through gene synthesis either through Genescript, IDT, or Genewiz. For some of the cucurbitadienol synthases, cDNA or genomic DNA was obtained through 10-60 day old seedlings followed by PCR amplification using specific and degenerate primers. DNA was cloned through standard molecular biology techniques or through yeast gap repair cloning (Joska et al., 2014) into one of the following overexpression vectors: pESC-Ura, pESC-His, or pESC-LEU. Gene expression was regulated by one of the following promoters; Gall, Gal10, Tef1, or GDS. Yeast transformation was performed using Zymo Yeast Transformation Kit II. Yeast strains were grown in standard media (YPD or SC) containing the appropriate selection with 2% glucose or 2% galactose for induction of heterologous genes. Yeast strains were grown in shake flask or 96 well plates at 30° ° C., 140-250 rpm. When indicated, lanosterol synthase inhibitor, Ro 48-8071 (Cayman Chemicals) was added (50 ug/ml). Yeast samples producing mogrol precursors, mogrol and mogrosides were processed through one of the following: • Cucurbitadienol and 11-OH Cucurbitadienol: Samples cell pellets were lysed (Yeast Buster) followed by ethyl acetate extraction, drying, and resuspension in methanol. • ·Mogrol and Mogrosides: Samples cell pellets were lysed in 50% ETOH, incubated at 80° C. for 30 min, filtered, dried and resuspended in MeOH for LCMS screening.
For analyzing Mogroside IIIE & Compound 1, the LCMS method included the use of Fluoro-phenyl 2.1×100 mm column, gradient 15 to 30% B for 6 minutes, at flow rate of 0.55 ml/min. For analyzing yeast production of mogroside I during enzyme screening, the LCMS method used a Phenomenex Kinetex Polar C18, 4.6×100 mm, 2.6 μm column, and a gradient of 25% to 55% B over 3 minutes, and 100% B at 3.5 minutes with a flow rate of 1.5 ml/min. Detection by ESI source negative mode single ion monitoring of 683.4 for mogroside I and 799.4 for mogroside II.
Various glycosyltransferase proteins were expressed in S. cerevisiae grown in the presence of 10 μM mogrol for 2-4 days at 30° C., 140-250 rpm in either shake flask or 96 well plates. Glycosyltransferases leading to production of Mogroside IA (glycosylation of C24-OH position) and/or Mogroside IE (glycosylation of C3-OH position) are provided in Table 6. DNA and protein sequences for the enzymes are provided in SEQ IDs 1050-1071 (see Table 1).

| Molecule | Mogroside IA | Mogroside IE |
| --- | --- | --- |
| B1 | 696200 | not detected |
| B2 | 1315000 | not detected |
| B3 | 562100 | not detected |
| B4 | 1764000 | not detected |
| B5 | 261900 | 104300 |
| B6 | 2700609 | not detected |
| B7 | 76330 | 13290 |
| B8 | 1816000 | not detected |

Source: patent US12286661B2, “Methods for making high intensity sweeteners” (Firmenich Incorporated, priority 2018, dated 2025)
